Reference: article PMC3225088

Biological target: T1, NmtR wild-type (Mycobacterium tuberculosis, UniProt O69711 2-120)
T1 sequence: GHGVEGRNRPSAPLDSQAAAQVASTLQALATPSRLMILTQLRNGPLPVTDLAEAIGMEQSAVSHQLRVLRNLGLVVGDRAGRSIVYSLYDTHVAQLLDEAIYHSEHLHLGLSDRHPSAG
Test: fluorescence anisotropy

B1: nmt operator 30 bp (dsDNA)
DNA 1: GAAATAAATGAACATATGATCATATATTCT
DNA 2: AGAATATATGATCATATGTTCATTTATTTC
For B1, the Ka was 2.86e+10 M⁻¹.
